Measurements: patent US20230094162A1 (MacroGenics, published 2023)
Like-named read-outs stand apart in the source and are kept apart here.

B1: TRIDENT-A4 (bispecific antibody, human IgG1, kappa, L234A L235A)
chain 1: EIVMTQSPATLSLTPGERATLSCRASQSVSSNYLSWFQQIPGQAPRLLIYGASTRATGIPARFSGSGSGTDFTLTISSLQPEDFAVYYCQQDYDLPWTFGQGTKVEIKGGGSGGGGQVQLQESGPGLVKPSETLSLTCTVSGGSISSYYWSWIRQPPGKGLEWIGRIYTSGSTNYNPSLKSRVTMSVDTSKNQFSLKLSSVTAADTAVYYCARDGWYDEDYNYYGMDVWGQGTTVTVSSGGCGGGEVAALEKEVAALEKEVAALEKEVAALEKGGGDKTHTCPPCPAPEAAGGPSVFLFPPKPKDTLYITREPEVTCVVVDVSHEDPEVKFNWYVDGVEVHNAKTKPREEQYNSTYRVVSVLTVLHQDWLNGKEYKCKVSNKALPAPIEKTISKAKGQPREPQVYTLPPSREEMTKNQVSLWCLVKGFYPSDIAVEWESNGQPENNYKTTPPVLDSDGSFFLYSKLTVDKSRWQQGNVFSCSVMHEALHNHYTQKSLSLSPGK
chain 2: EIVMTQSPATLSLTPGERATLSCRASQSVSSNYLSWFQQIPGQAPRLLIYGASTRATGIPARFSGSGSGTDFTLTISSLQPEDFAVYYCQQDYDLPWTFGQGTKVEIKGGGSGGGGQVQLQESGPGLVKPSETLSLTCTVSGGSISSYYWSWIRQPPGKGLEWIGRIYTSGSTNYNPSLKSRVTMSVDTSKNQFSLKLSSVTAADTAVYYCARDGWYDEDYNYYGMDVWGQGTTVTVSSGGCGGGKVAALKEKVAALKEKVAALKEKVAALKE
heavy: EVQLVESGGGLVQPGGSLRLSCAASGFTFSSYTMSWVRQAPGKGLEWVAYISIKGGTTYYPDTVKGRFTISRDNAKNSLYLQMNSLRAEDTAVYYCARQGLPYYGDYWGQGTLVTVSSASTKGPSVFPLAPSSKSTSGGTAALGCLVKDYFPEPVTVSWNSGALTSGVHTFPAVLQSSGLYSLSSVVTVPSSSLGTQTYICNVNHKPSNTKVDKRVEPKSCDKTHTCPPCPAPEAAGGPSVFLFPPKPKDTLYITREPEVTCVVVDVSHEDPEVKFNWYVDGVEVHNAKTKPREEQYNSTYRVVSVLTVLHQDWLNGKEYKCKVSNKALPAPIEKTISKAKGQPREPQVYTLPPSREEMTKNQVSLSCAVKGFYPSDIAVEWESNGQPENNYKTTPPVLDSDGSFFLVSKLTVDKSRWQQGNVFSCSVMHEALHNRYTQKSLSLSPGK
light: DIQMTQSPSSLSASVGDRVTITCKASQDVNEAVAWYQQKPGKAPKLLIYWASTRHTGVPSRFSGSGSGTDFTLTISSLQPEDFATYYCQQHYNTPLTFGQGTKVEIKRTVAAPSVFIFPPSDEQLKSGTASVVCLLNNFYPREAKVQWKVDNALQSGNSQESVTEQDSKDSTYSLSSTLTLSKADYEKHKVYACEVTHQGLSSPVTKSFNRGEC
notes: Trivalent; two CD137 MAB-6(1.1) sites, one hPD-L1 MAB-2(3.2) site
B2: CD137 MAB-6 (1.1) (antibody, V domains shown)
VH: QVQLQESGPGLVKPSETLSLTCTVSGGSISSYYWSWIRQPPGKGLEWIGRIYTSGSTNYNPSLKSRVTMSVDTSKNQFSLKLSSVTAADTAVYYCARDGWYDEDYNYYGMDVWGQGTTVTVSS
VL: EIVMTQSPATLSLTPGERATLSCRASQSVSSNYLSWFQQIPGQAPRLLIYGASTRATGIPARFSGSGSGTDFTLTISSLQPEDFAVYYCQQDYDLPWTFGQGTKVEIK
notes: Fully human variable domains from a TRIANNI MOUSE hybridoma
B3: chCD137 MAB-3 (antibody, V domains shown)
VH: QVQLQQPGAELVRPGASVKLSCKASGYTFTSYWINWVKQRPGQGLEWIGNIYPSDSYTNYNQKFKDKATLTVDKSSSTAYMQLSSPTSEDSAVYYCTRDYGSSYSFDYWGQGTTLTVSS
VL: DIQMTQTTSSLSASLGDRVTISCRPSQDISNYLNWYQQKPDGTVKLLIYYTSRLRSGVPSRFSGSGSGTDYSLTISNLEQEDIATYFCQQGDTLPYTFGGGTKLEIK

Columns and labels:
[1] = target: T1, PD-L1 expressed on the cell surface (CHO/PD-L1 cells) (UniProt Q9NZQ7 19-290); experiment: cell-based or functional assay
T1 sequence (Q9NZQ7 19-290): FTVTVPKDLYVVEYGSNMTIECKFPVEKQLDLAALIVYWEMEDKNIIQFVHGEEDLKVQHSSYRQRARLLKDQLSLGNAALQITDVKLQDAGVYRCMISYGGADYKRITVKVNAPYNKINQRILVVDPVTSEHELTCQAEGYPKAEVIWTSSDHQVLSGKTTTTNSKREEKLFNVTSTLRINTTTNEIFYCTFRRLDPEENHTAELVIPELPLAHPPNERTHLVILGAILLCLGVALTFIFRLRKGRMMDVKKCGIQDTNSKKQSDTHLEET

[2] = target: T1, PD-L1 expressed on the cell surface …; experiment: cell-based or functional assay; remark: listed apart in the source
[3] = target: T2, CD137 expressed on the cell surface (CHO/CD137 cells) (UniProt Q07011 24-255, limits assumed); experiment: flow cytometry (FACS) on CHO cells expressing CD137, MFI
T2 construct: whole, on cells; also called cell surface CD137; Jurkat-NF-κB-Luc reporter cells overexpressing CD137
T2 sequence (Q07011 24-255 limits assumed): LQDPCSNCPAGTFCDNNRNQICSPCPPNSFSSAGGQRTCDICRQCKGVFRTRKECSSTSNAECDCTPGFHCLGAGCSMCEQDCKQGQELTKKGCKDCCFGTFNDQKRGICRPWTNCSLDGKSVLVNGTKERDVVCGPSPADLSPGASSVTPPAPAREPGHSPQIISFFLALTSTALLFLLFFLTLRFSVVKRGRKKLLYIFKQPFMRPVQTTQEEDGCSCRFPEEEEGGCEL

[4] = target: T3, His-tagged soluble human CD137 fusion protein (huCD137) (human, UniProt Q07011 24-186); experiment: ELISA, plate-coated soluble human CD137, hybridoma supernatant
T3 construct: extracellular domain; The ELISA method allows a His or a human Fc fusion; also called shCD137 His; huCD137-His; not shown: His tag
T3 sequence (Q07011 24-186): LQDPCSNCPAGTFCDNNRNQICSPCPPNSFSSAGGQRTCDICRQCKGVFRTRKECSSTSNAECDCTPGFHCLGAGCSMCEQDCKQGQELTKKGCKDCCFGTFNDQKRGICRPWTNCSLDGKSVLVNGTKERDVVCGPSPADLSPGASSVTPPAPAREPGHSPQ
Procedure: (§1) ELISA assays to evaluate the test articles for CD137 binding were performed essentially as follows: flat bottom maxisorb 96-well plates were coated with soluble human or cynomolgus monkey CD137 (the extracellular domain of human or cynomolgus monkey CD137 fused to a His tag (shCD137 His or scyCD137 His) or to a human Fc Region (shCD137 hFc or scyCD137 hFc)), each at 0.5 or 1 μg/mL. The plates were washed, blocked with PBS buffer containing 0.5% bovine serum albumin and 0.1% Tween20, and incubated with a test article (e.g., cell supernatants or purified mAb). For the hybridoma supernatants anti-CD137 antibody was utilized at 1.0 μg/mL and six three-fold serial dilutions. The amount of test article binding to the immobilized CD137 (human or cynomolgus monkey) was assessed using a goat anti-mouse IgG-HRP secondary antibody. All samples were analyzed on a plate reader (Victor 2 Wallac, Perkin Elmer) and EC50 values were calculated from dose-response curves by nonlinear regression analysis.

[5] = target: T4, soluble cynomolgus monkey CD137 (cyCD137) (cynomolgus monkey, UniProt A9YYE7 24-186); experiment: ELISA, plate-coated soluble cynomolgus CD137, hybridoma supernatant
T4 construct: extracellular domain; also called scyCD137 His; scyCD137 hFc; not shown: His tag or human Fc Region
T4 sequence (A9YYE7 entry or part of it): as the sequence (Q07011 24-186) above, with P4L, N19S, R50K, T66I, P67S, F69Y, G75E, V149A counted along it
Procedure: as §1

[6] = target: T2, CD137 expressed on the cell surface …; experiment: flow cytometry on CHO/CD137 cells (Surface Binding)
Procedure: FACS analysis to evaluate the test articles for binding to cell surface CD137 was performed essentially as follows: 100 μL of CHO cells expressing CD137 (CHO/CD137) (1.0×10⁵ to 1×10⁶ cells/well) and 100 μL of serially diluted test article or control was added to each well of microtiter assay plate(s), mixed and incubated at RT for about 30 min. The cells were washed with FACS Buffer and secondary antibody (goat anti-human-APC, PE, or FITC) was then added to each well (1:1000), after which, the components were mixed and the wells were incubated at RT for about 30 min. Cells were washed and resuspended in 250 μL FACS Buffer and analyzed by flow cytometry (BD LSR Fortessa or FACSCanto II) for cell events collection. Data analysis were performed via FloJo v10.

[7] = target: T3, His-tagged soluble human CD137 fusion …; experiment: BIACORE SPR, antibody captured on anti-human Fc, soluble CD137 His as analyte, 1:1 model
Source text: The binding kinetics of the anti-CD137 antibodies (having human Fc regions) were investigated using BIACORE™ SPR analysis. The anti-CD137 antibodies were captured on a Fab′2 goat-anti-human Fc surface.

[8] = target: T4, soluble cynomolgus monkey CD137 …; experiment: ELISA, plate-coated soluble cynomolgus CD137
[9] = target: T3, His-tagged soluble human CD137 fusion …; experiment: ELISA, plate-coated soluble human CD137

Binder	EC50 (read off the curve) [1]	EC50 (read off the curve) [2]	EC50 (read off the curve) [3]	EC50 [4]	EC50 [5]	EC50 [6]	Kd [7]	koff [7]	kon [7]	EC50 [8]	EC50 [9]
B1	~0.2 µg/mL	~0.4 µg/mL	~0.01 µg/mL								
B2				0.038 µg/mL	0.049 µg/mL	0.021 µg/mL	16 nM	0.0067 s⁻¹	420000 M⁻¹ s⁻¹		
B3						0.01 µg/mL	38 nM	0.025 s⁻¹	660000 M⁻¹ s⁻¹	0.044 µg/mL	0.034 µg/mL
